How the values were obtained:
Experiment in all cases: G' assay
[1] = molecular target: T1, GST-MUPP1 PDZ domain 9 (Homo sapiens (Human)), O75970
T1 chain: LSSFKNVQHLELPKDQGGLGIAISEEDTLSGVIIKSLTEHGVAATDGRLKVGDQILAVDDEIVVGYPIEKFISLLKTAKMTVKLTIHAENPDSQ

[2] = molecular target: T2, GST-ENIGMA PDZ domain 1 (Homo sapiens (Human)), Q9NR12
T2 chain: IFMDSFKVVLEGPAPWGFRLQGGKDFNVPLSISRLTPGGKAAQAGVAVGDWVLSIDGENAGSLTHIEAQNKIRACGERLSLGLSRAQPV

[3] = molecular target: T3, GST-PDZ-73 PDZ domain 2 (Homo sapiens (Human)), Q9Y6N9
T3 chain: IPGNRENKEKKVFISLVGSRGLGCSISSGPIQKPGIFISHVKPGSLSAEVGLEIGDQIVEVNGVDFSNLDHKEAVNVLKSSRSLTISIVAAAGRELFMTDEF

[4] = molecular target: T4, GST-PDZK1 PDZ domain 1 (Homo sapiens (Human)), Q5T2W1
T4 chain: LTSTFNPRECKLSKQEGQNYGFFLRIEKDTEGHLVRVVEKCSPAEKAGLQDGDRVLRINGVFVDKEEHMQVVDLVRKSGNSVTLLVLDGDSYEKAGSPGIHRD

[5] = molecular target: T5, GST-SYNTENIN PDZ domain 2 (Homo sapiens (Human)), O00560
T5 chain: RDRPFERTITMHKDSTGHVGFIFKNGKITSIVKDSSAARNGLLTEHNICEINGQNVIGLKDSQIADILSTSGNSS

[6] = molecular target: T6, GST-DLG1 PDZ domain 3 (Homo sapiens), Q12959
T6 chain: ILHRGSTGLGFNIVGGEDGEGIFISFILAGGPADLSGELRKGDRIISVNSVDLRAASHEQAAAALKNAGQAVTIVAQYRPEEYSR

[7] = molecular target: T7, GST-KIAA1415 PDZ domain 1 (Homo sapiens (Human)), Q8TCU6
T7 chain: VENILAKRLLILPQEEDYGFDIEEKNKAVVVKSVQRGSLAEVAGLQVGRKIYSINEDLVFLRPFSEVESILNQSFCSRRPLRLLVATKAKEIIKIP

[8] = molecular target: T8, GST-GRIP 1 PDZ domain 6 (Mus musculus (Mouse)), Q925T6
T8 chain: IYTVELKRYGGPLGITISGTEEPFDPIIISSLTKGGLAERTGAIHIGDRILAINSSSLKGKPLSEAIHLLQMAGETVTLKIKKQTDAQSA

[9] = molecular target: T9, GST-MUPP1 PDZ domain 4 (Homo sapiens (Human)), O75970
T9 chain: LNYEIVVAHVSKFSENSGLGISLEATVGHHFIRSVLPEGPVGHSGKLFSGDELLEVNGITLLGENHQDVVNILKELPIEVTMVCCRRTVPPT

[10] = molecular target: T10, GST-AIPC PDZ domain 3 (Homo sapiens (Human)), O15018
T10 chain: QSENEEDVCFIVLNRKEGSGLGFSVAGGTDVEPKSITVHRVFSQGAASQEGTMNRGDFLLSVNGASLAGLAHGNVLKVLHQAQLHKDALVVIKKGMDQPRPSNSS

[11] = molecular target: T11, GST-PDZK1 PDZ domain 3 (Homo sapiens (Human)), A8MUH7
T11 chain: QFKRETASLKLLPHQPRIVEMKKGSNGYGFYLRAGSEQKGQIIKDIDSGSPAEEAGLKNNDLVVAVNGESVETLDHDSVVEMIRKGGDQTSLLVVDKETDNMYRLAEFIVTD

[12] = molecular target: T12, GST-prIL16 PDZ domains 1, 2, Q14005
T12 chain: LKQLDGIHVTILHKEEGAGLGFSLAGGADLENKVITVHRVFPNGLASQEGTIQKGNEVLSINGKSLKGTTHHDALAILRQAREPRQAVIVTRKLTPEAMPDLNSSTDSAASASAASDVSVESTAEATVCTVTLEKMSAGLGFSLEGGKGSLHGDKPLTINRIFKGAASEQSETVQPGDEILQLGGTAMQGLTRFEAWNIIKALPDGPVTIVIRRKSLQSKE

[13] = molecular target: T13, GST-TIAM 2 PDZ domain 1 (Homo sapiens (Human)), Q8IVF5
T13 chain: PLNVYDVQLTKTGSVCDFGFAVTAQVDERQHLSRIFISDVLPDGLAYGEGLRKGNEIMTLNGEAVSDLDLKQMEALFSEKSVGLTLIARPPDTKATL

[14] = molecular target: T14, GST-KIAA0303 PDZ domain 1 (Homo sapiens (Human)), O15021
T14 chain: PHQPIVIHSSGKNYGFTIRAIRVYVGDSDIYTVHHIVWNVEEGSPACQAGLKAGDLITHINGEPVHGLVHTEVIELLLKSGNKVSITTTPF

[15] = molecular target: T15, GST-MUPP1 PDZ domain 12 (Homo sapiens (Human)), O75970
T15 chain: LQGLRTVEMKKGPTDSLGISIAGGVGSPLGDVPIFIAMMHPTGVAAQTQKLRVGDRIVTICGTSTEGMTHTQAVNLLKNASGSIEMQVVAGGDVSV

[16] = molecular target: T16, GST-KIAA1719 PDZ domain 4 (Homo sapiens (Human)), Q9C0E4
T16 chain: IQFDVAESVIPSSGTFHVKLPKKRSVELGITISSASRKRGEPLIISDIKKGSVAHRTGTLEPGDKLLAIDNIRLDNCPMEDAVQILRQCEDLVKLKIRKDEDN

[17] = molecular target: T17, GST-KIAA0751(L) PDZ domain 1 (Mus musculus (Mouse)), Q9EQZ7
T17 chain: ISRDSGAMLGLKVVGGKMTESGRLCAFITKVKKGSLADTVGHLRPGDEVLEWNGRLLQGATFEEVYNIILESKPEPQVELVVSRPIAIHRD

[18] = molecular target: T18, GST-FLJ21687 PDZ domain 1 (Homo sapiens (Human)), Q9H6Y5
T18 chain: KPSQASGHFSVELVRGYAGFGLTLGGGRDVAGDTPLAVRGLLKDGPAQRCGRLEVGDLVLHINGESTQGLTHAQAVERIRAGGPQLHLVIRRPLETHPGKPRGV
Note: key of the grades not given here.

Binder: KTMPAAMYRLLTAQEQPVYI (modifications not checked) [MINT-1]
- Classification [1]: 3 A450 class

Binder: VPGALDYAAFSSALYGESDL (modifications not checked) [a-actinin 2]
- Classification [2]: 5 A450 class

Binder: PIPAGGCTFSGIFPTLTSPL (modifications not checked) [KIA 1481]
- Classification [3]: 1 A450 class

Binder: ILNSIQVMRAQMNQIQSVEV (modifications not checked) [ephrin B2]
- Classification [4]: 1 A450 class
- Classification [5]: 2 A450 class
- Classification [6]: 1 A450 class
- Classification [7]: 1 A450 class
- Classification [8]: 3 A450 class
- Classification [9]: 1 A450 class
- Classification [10]: 1 A450 class
- Classification [11]: 1 A450 class
- Classification [12]: 2 A450 class

Binder: ELLQFCRTPNPALKNGQYWV (modifications not checked) [CSPG4 (chondroitin sulfae proteoglycan 4, melanoma-associated)]
- Classification [13]: 3 A450 class
- Classification [14]: 1 A450 class
- Classification [15]: 1 A450 class

Binder: HDFRRAFKKILARGDRKRIV (modifications not checked) [alpha-2A Adrenergic receptor]
- Classification [16]: 3 A450 class
- Classification [17]: 3 A450 class
- Classification [18]: 1 A450 class
